Source: the Human Domainome abundance scans (Beltran et al. 2025)
± gives the uncertainty stated by the source.

B1: Nanos homolog 2, residues 63 to 115; numbered along this chain, P60321 (parent)
chain: CNFCKHNGESRHVYSSHQLKTPDGVVVCPILRHYVCPVCGATGDQAHTLKYCP

Variants of: B1
Test: abundance fitness (aPCA) (normalised: wild type 0, dead -1); higher = more abundant; growth selection in yeast, the domain comes from the species named
Settings: Homo sapiens

Abundance fitness, by site and new letter:
E9: T -0.154 ± 0.087 | V -0.189 ± 0.061 | W -0.495 ± 0.15
S10: A -0.172 ± 0.1 | C -0.321 ± 0.099 | D -0.158 ± 0.14 | E 0.025 ± 0.1 | F -0.251 ± 0.082 | G 0.012 ± 0.065 | H 0.022 ± 0.08 | I -0.149 ± 0.069 | K 0.079 ± 0.11 | L -0.194 ± 0.059 | N -0.198 ± 0.14 | P 0.02 ± 0.078 | Q 0.066 ± 0.11 | R 0.003 ± 0.076 | T -0.248 ± 0.12 | V -0.296 ± 0.083 | W -0.442 ± 0.086 | Y -0.328 ± 0.16
R11: A -0.034 ± 0.081 | C -0.497 ± 0.19 | D 0.167 ± 0.095 | F 0.07 ± 0.16 | G -0.084 ± 0.067 | H -0.039 ± 0.19 | I 0.063 ± 0.12 | K -0.317 ± 0.17 | L -0.049 ± 0.077 | M -0.156 ± 0.12 | N -0.131 ± 0.11 | P 0.172 ± 0.16 | Q -0.077 ± 0.18 | S -0.047 ± 0.1 | T 0.08 ± 0.13 | V -0.007 ± 0.091 | W -0.408 ± 0.093
H12: C -0.06 ± 0.066 | D 0.188 ± 0.085 | E 0.226 ± 0.063 | F -0.031 ± 0.14 | G 0.056 ± 0.084 | I -0.043 ± 0.16 | K 0.096 ± 0.14 | L -0.036 ± 0.11 | M -0.012 ± 0.078 | P -0.069 ± 0.14 | Q -0.013 ± 0.11 | R -0.049 ± 0.059 | S 0.126 ± 0.066 | T 0.035 ± 0.11 | V -0.091 ± 0.08 | W -0.148 ± 0.14 | Y -0.101 ± 0.13
V13: A -0.084 ± 0.077 | C 0 ± 0.07 | D -0.013 ± 0.13 | E -0.058 ± 0.094 | G -0.007 ± 0.087 | H -0.087 ± 0.22 | I -0.195 ± 0.15 | K 0.113 ± 0.078 | L -0.05 ± 0.074 | M 0.056 ± 0.092 | N 0.064 ± 0.099 | P -0.477 ± 0.13 | Q -0.068 ± 0.1 | R -0.06 ± 0.065 | S -0.008 ± 0.069 | T 0.157 ± 0.085 | W -0.04 ± 0.11 | Y -0.125 ± 0.11
Y14: A -0.165 ± 0.058 | C 0.036 ± 0.11 | D -0.213 ± 0.13 | E -0.089 ± 0.099 | G -0.109 ± 0.076 | H -0.226 ± 0.14 | I -0.18 ± 0.15 | K -0.133 ± 0.087 | L -0.125 ± 0.071 | M -0.274 ± 0.11 | Q 0.002 ± 0.11 | R -0.153 ± 0.074 | T 0.011 ± 0.081 | V -0.011 ± 0.085 | W 0.208 ± 0.12
S15: C -0.158 ± 0.13 | F -0.135 ± 0.1 | G 0.051 ± 0.098 | H -0.095 ± 0.11 | I -0.258 ± 0.1 | K -0.099 ± 0.079 | L -0.002 ± 0.071 | N -0.034 ± 0.093 | P -0.326 ± 0.13 | Q 0.034 ± 0.11 | T -0.595 ± 0.072 | V -0.157 ± 0.073 | W -0.333 ± 0.1 | Y 0.068 ± 0.12
S16: A -0.117 ± 0.063 | C 0.077 ± 0.14 | D -0.08 ± 0.13 | E -0.163 ± 0.099 | F -0.594 ± 0.14 | G -0.035 ± 0.073 | H -0.287 ± 0.12 | I -0.406 ± 0.17 | K -0.262 ± 0.11 | L -0.456 ± 0.074 | M -0.047 ± 0.1 | N 0.023 ± 0.12 | P -0.459 ± 0.16 | Q -0.042 ± 0.055 | R -0.135 ± 0.067 | T -0.335 ± 0.12 | V -0.562 ± 0.095 | W -0.557 ± 0.08 | Y -0.489 ± 0.088
H17: A -0.626 ± 0.13 | C -0.737 ± 0.16 | E -0.512 ± 0.14 | F -0.86 ± 0.37 | G -0.618 ± 0.073 | I -0.719 ± 0.25 | K -0.6 ± 0.15 | L -0.756 ± 0.093 | N -0.711 ± 0.23 | P -0.828 ± 0.27 | Q -0.452 ± 0.083 | R -0.644 ± 0.082 | S -0.674 ± 0.1 | T -0.442 ± 0.082 | V -0.769 ± 0.071 | W -1.14 ± 0.21
Q18: A 0.056 ± 0.1 | D 0.101 ± 0.13 | F -0.079 ± 0.069 | G -0.089 ± 0.068 | H 0.081 ± 0.17 | I -0.259 ± 0.15 | K 0.133 ± 0.13 | L -0.033 ± 0.072 | M 0.091 ± 0.11 | N 0.097 ± 0.12 | P -0.183 ± 0.074 | R -0.114 ± 0.073 | S -0.104 ± 0.082 | T -0.145 ± 0.13 | V 0.065 ± 0.056 | Y -0.149 ± 0.14
L19: C -0.093 ± 0.15 | D -0.172 ± 0.18 | E -0.013 ± 0.12 | G -0.292 ± 0.1 | I -0.149 ± 0.24 | M -0.051 ± 0.12 | N -0.277 ± 0.42 | P -0.508 ± 0.15 | Q -0.329 ± 0.22 | R -0.372 ± 0.082 | S -0.186 ± 0.15 | T -0.041 ± 0.13 | V -0.113 ± 0.078 | W -0.089 ± 0.16
